Measured values taken from patent publication US10512676B2, “Formulations comprising recombinant acid alpha-glucosidase” (Amicus Therapeutics, Inc., priority 2016, dated 2019).

Legend:
CIMPR = CIMPR (Homo sapiens, UniProt P11717); test: CIMPR plate binding assay
Method: In addition to having a greater percentage of rhGAA that can bind to the CIMPR, it is important to understand the quality of that interaction. […] Briefly, CIMPR-coated plates were used to capture GAA. Varying concentrations of rhGAA were applied to the immobilized receptor and unbound rhGAA was washed off. The amount of remaining rhGAA was determined by GAA activity.

[1] = system: normal and Pompe fibroblast cell lines; test: Cellular uptake of rhGAA in normal and Pompe fibroblast cell lines; type: cell-based
Method: The relative cellular uptake of ATB200 and Lumizyme® rhGAA were compared using normal and Pompe fibroblast cell lines. […] After 16-hr incubation, external rhGAA was inactivated with TRIS base and cells were washed 3-times with PBS prior to harvest. Internalized GAA measured by 4MU-α-Glucoside hydrolysis and was graphed relative to total cellular protein and the results appear in FIGS. 11A-B.

[2] = system: Pompe fibroblasts and skeletal muscle myoblasts; test: Internalization by Pompe fibroblasts and skeletal muscle myoblasts; type: cell-based
[3] = Apparent plasma half-life in vivo
Gaa knockout mice [4] = test: Glycogen reduction in Gaa-knockout mice; type: in vivo, mouse
Source text: Animals were given two IV bolus administrations (every other week); tissues were harvested two weeks after the last dose and analyzed for acid α-glucosidase activity and glycogen content.
Tissues were collected 14 days after last enzyme dose for glycogen measurement.

Gaa knockout mice [5] = test: Muscle physiology and morphology in Gaa-knockout mice (LAMP1, PAS, vacuoles); type: in vivo, mouse
Method: Control mice were treated with vehicle alone. Soleus, quadriceps and diaphragm tissue is harvested two weeks after the last dose of recombinant human acid α-glucosidase. […] Semi-thin sections of quadriceps muscle embedded in epoxy resin (Epon) were stained with methylene blue and observed by […] (1000×) to determine the extent of the presence of vacuoles. Quadriceps muscle samples were analyzed immunohistochemically to determine levels of the autophagy markers microtubule-associated protein 1A/1B-light chain 3 phosphatidylethanolamine conjugate (LC3A II) and p62, the insulin-dependent glucose transporter GLUT4 and the insulin-independent glucose transporter GLUT1. […] Control mice were treated with vehicle alone. Cardiac muscle tissue was harvested two weeks after the last dose of recombinant human acid α-glucosidase and analyzed for glycogen levels, by staining with periodic acid—Schiff reagent (PAS), and for lysosome proliferation, by measuring levels of LAMPI.

Gaa KO mice = test: Muscle function in Gaa-knockout mice, 12 biweekly administrations (grip strength, wire hang); type: in vivo, mouse; details: 6 months, with or without miglustat
Source text: In FIG. 18A, * indicates statistically significant compared to Lumizyme® alone (p<0.05, 2-sided t-test). In FIGS. 19A-19G, * indicates statistically significant compared to Lumizyme® alone (p<0.05, multiple comparison using Dunnett's method under one-way ANOVA analysis).

whole human blood = test: Hemolysis in whole human blood; type: cell-based; details: for percent hemolysis / OD540 With Blood / % Hemolysis: 1 hour at 37° C.; for % Hemolysis: water = 100%
Method: A series of dilutions of blood (1:2, 1:3, 1:4, 1:5, and 1:10) from a human donor were prepared in saline. […] Four types of samples were tested: the test article, placebo, positive control and negative control. […] The placebo was the same as the test article except there was no ATB200 rhGAA.
Samples were incubated without agitation for 1 hour at 37° C. After incubation, the tubes were centrifuged for 10 minutes at approximately 100× g at room temperature. The amount of hemoglobin in the supernatant of each sample was analyzed spectrophotometrically at 540 nm.
The percent hemolysis for the test article was determined by the formula: […]
The percent hemolysis of water plus blood is 100%. Saline was the negative control. Hemolysis less than or equal to 10% was considered insignificant. The percent hemolysis was calculated for each concentration of the test article and for the placebo.

[6] = Flocculation in human plasma; set-up: key to Plasma Macro (precipitation/coagulation score) / Plasma Micro (precipitation/coagulation score) / Plasma Pellet (score): 0=negative; 1=very slight precipitation or pellet; 2=minimal precipitation or pellet; 3=moderate precipitation or pellet; 4=significant precipitation or pellet
Method: (§1) Test article dosing solutions (3 concentrations) and the placebo (3 concentrations) were mixed with equal volumes of human plasma and serum from a donor. […] The placebo was the same as the test article except there was no ATB200 rhGAA.
(§2) One ml of each dose of test article or placebo, was mixed with an equal volume of plasma, serum and saline. Samples were incubated for 30 minutes at room temperature. After incubation the tubes were examined macroscopically and microscopically for precipitation or coagulation. An aliquot from each tube was centrifuged at 14,000 rpm in a microcentrifuge for 10 minutes. Each tube was examined for the presence or absence of a pellet. Precipitation/coagulation and pellets were scored as follows: • 0=negative • 1=very slight precipitation or pellet • 2=minimal precipitation or pellet • 3=moderate precipitation or pellet • 4=significant precipitation or pellet

[7] = Safety and tolerability in patients with Pompe disease; type: in vivo, human; details: alone and in combination with miglustat
Method: Mean total GAA protein and miglustat PK results from the first 8 Cohort 1 patients through Visit 9 and the first 2 Cohort 3 patients were assessed.

[8] = Flocculation study: test article mixed with equal volume of saline (macro, micro, pellet); set-up: key: 0=negative; 1=very slight precipitation or pellet; 2=minimal precipitation or pellet; 3=moderate precipitation or pellet; 4=significant precipitation or pellet
Method: as §1, §2

Sequence of CIMPR (P11717 41-2491, species assumed): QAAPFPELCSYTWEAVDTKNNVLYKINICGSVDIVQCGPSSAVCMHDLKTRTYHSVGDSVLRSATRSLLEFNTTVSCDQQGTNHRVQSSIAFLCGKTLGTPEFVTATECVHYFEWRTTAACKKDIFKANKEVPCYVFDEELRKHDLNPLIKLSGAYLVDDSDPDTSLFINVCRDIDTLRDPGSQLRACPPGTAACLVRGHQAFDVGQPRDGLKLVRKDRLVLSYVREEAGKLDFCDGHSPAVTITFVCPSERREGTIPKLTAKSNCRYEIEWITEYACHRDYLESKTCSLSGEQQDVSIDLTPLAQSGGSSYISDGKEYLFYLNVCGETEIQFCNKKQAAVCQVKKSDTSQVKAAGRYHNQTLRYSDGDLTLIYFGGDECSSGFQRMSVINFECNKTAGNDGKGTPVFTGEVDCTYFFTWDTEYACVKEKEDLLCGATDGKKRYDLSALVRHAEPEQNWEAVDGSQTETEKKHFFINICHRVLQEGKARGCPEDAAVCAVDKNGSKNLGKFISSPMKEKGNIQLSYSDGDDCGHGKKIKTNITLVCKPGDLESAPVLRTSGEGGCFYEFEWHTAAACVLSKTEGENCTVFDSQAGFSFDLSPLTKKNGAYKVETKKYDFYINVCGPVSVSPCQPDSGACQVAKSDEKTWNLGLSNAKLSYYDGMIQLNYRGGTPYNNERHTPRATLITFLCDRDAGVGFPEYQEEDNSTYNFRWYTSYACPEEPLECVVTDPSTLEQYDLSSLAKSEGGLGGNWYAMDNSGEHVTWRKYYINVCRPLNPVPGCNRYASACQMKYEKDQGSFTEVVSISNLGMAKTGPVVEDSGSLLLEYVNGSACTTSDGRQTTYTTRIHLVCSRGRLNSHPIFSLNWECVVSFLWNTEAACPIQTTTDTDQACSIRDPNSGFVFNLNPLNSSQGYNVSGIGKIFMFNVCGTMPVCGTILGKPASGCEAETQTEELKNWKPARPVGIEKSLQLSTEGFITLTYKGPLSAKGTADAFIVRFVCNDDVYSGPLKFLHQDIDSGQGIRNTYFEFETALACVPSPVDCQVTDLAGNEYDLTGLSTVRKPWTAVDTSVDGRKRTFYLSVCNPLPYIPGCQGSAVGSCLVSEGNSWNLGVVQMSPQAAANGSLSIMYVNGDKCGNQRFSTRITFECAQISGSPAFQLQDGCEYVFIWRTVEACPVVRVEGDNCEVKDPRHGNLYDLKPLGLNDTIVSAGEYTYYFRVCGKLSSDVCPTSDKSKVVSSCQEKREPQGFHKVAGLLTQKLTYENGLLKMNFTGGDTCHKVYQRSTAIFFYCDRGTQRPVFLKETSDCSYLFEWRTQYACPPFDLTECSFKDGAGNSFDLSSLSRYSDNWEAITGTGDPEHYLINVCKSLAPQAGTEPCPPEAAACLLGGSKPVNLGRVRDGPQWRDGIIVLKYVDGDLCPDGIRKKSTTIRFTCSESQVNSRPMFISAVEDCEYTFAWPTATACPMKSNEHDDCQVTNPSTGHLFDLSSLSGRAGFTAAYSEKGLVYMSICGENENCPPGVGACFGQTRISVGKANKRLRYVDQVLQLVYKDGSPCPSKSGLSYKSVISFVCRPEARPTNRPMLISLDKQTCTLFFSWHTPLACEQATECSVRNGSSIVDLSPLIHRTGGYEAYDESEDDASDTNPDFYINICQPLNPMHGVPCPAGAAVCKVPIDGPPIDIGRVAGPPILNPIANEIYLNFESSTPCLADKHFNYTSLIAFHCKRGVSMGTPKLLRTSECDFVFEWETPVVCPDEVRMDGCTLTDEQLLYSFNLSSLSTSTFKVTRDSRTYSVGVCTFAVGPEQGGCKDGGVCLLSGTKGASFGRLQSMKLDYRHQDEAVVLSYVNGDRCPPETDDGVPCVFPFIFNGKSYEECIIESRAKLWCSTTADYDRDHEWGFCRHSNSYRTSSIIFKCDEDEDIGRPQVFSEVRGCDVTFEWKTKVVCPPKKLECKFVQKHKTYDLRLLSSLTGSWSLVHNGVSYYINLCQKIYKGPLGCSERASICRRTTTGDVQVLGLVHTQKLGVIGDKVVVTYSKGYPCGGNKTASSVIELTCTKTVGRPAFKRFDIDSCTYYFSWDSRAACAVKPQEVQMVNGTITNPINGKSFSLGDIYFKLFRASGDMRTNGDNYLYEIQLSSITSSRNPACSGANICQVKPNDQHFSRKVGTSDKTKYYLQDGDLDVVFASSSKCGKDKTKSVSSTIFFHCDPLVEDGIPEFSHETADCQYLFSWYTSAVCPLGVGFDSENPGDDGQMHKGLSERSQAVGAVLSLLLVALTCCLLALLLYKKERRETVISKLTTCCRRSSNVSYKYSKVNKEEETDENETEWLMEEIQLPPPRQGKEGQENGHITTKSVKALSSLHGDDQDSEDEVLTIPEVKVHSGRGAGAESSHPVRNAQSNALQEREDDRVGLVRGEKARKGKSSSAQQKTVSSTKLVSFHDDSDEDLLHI

Q: For “ATB200: recombinant human acid α-glucosidase expressed in CHO cells with increased content of M6P-bearing N-glycans”, which Kd (CIMPR; binding to CIMPR, M6P receptor plate binding assays) is on record?
A: 2 to 4 nM

Q: And the “binding to CIMPR” value (CIMPR; versus Lumizyme, FIG. 10A)?
A: bound to CIMPR significantly better than Lumizyme®

Q: And the “concentration that saturates cellular receptors” value ([1]; 16-hr incubation)?
A: about 20 nM

Q: And the “internalization into normal and Pompe fibroblast cells” value ([1]; versus Lumizyme)?
A: internalized to a greater degree than conventional Lumizyme® rhGAA

Q: What about the Kuptake [2] of the same substance?
A: 7 to 14 nM

Q: What about the “apparent plasma half-life (t1/2)” value [3] of the same substance?
A: ~45 min

Q: And the “relative reduction of glycogen in quadriceps and triceps” value (Gaa knockout mice [4]; 20 mg/kg IV every other week, 4 injections, FIG. 13)?
A: greater reduction of glycogen than Lumizyme®

Q: And the tissue glycogen depletion (Gaa knockout mice [4]; 5, 10, 20 mg/kg, two IV bolus administrations every other week)?
A: deplete tissue glycogen in acid α-glucosidase (Gaa) knockout mice in a dose-dependent fashion

Q: And the “reduction of glycogen levels in skeletal muscles” value (Gaa knockout mice [4]; ATB200 10 and 20 mg/kg vs Lumizyme 20 mg/kg)?
A: significantly better reduction of glycogen levels in skeletal muscles than Lumizyme®

Q: What about the “lysosome proliferation (LAMP1)” value (Gaa knockout mice [5]; 20 mg/kg every other week, heart, diaphragm, soleus) of the same substance?
A: reduction in lysosome proliferation in heart, diaphragm and skeletal muscle (soleus) tissue compared to conventional treatment with alglucosidase alfa

Q: And the “punctate glycogen levels (PAS)” value (Gaa knockout mice [5]; 20 mg/kg every other week, heart, soleus)?
A: reduction in punctate glycogen levels in heart and skeletal muscle (soleus) tissue compared to conventional treatment with alglucosidase alfa

Q: And the “number of vacuoles in muscle fiber in quadriceps” value (Gaa knockout mice [5]; 20 mg/kg, two IV bolus administrations)?
A: significantly reduced the number of vacuoles in muscle fiber in the quadriceps of Gaa knockout mice

Q: What about the “intracellular accumulation of dystrophin” value (Gaa KO mice) of the same substance?
A: lowered intracellular accumulation of dystrophin in Gaa KO mice

Q: What about the percent hemolysis (whole human blood; 300 μg/ml) of the same substance?
A: −0.1%

Q: What about the percent hemolysis (whole human blood; 600 μg/ml) of the same substance?
A: −1.5%

Q: And the percent hemolysis (whole human blood; 1000 μg/ml)?
A: −1.5%

Q: And the “OD540 Without Blood” value (whole human blood; Concentration 300 μg/mL)?
A: 0.001

Q: And the “OD540 With Blood” value (whole human blood; Concentration 300 μg/mL)?
A: 0.016

Q: What about the “% Hemolysis” value (whole human blood; Concentration 300 μg/mL) of the same substance?
A: −0.10%

Q: What about the “OD540 Without Blood” value (whole human blood; Concentration 600 μg/mL) of the same substance?
A: 0.002

Q: And the “OD540 With Blood” value (whole human blood; Concentration 600 μg/mL)?
A: 0.003

Q: What about the “% Hemolysis” value (whole human blood; Concentration 600 μg/mL) of the same substance?
A: −1.52%

Q: What about the “OD540 Without Blood” value (whole human blood; Concentration 1000 μg/mL) of the same substance?
A: 0.003

Q: And the “OD540 With Blood” value (whole human blood; Concentration 1000 μg/mL)?
A: 0.004

Q: What about the “% Hemolysis” value (whole human blood; Concentration 1000 μg/mL) of the same substance?
A: −1.52%

Q: What about the “Plasma Macro (precipitation/coagulation score)” value ([6]; Final concentration 300 μg/mL) of the same substance?
A: 0

Q: What about the “Plasma Micro (precipitation/coagulation score)” value ([6]; Final concentration 300 μg/mL) of the same substance?
A: 0

Q: And the “Plasma Pellet (score)” value ([6]; Final concentration 300 μg/mL)?
A: 0

Q: And the “Plasma Macro (precipitation/coagulation score)” value ([6]; Final concentration 600 μg/mL)?
A: 0

Q: And the “Plasma Micro (precipitation/coagulation score)” value ([6]; Final concentration 600 μg/mL)?
A: 0

Q: What about the “Plasma Pellet (score)” value ([6]; Final concentration 600 μg/mL) of the same substance?
A: 0

Q: What about the “Plasma Macro (precipitation/coagulation score)” value ([6]; Final concentration 1000 μg/mL) of the same substance?
A: 0

Q: And the “Plasma Micro (precipitation/coagulation score)” value ([6]; Final concentration 1000 μg/mL)?
A: 0

Q: What about the “Plasma Pellet (score)” value ([6]; Final concentration 1000 μg/mL) of the same substance?
A: 0

Q: What about the pellet after centrifugation ([6]; human plasma, 14,000 rpm 10 minutes) of the same substance?
A: no pellets were observed

Q: What about the “precipitation, macroscopic and microscopic” value ([6]; human plasma, each ATB200 concentration, 30 minutes at room temperature) of the same substance?
A: No precipitation was observed macroscopically or microscopically

Q: And the safety and tolerability [7]?
A: safe and well tolerated

Q: And the “Saline Macro (precipitation/coagulation score)” value ([8]; Final concentration 300 μg/mL)?
A: 0

Q: What about the “Saline Micro (precipitation/coagulation score)” value ([8]; Final concentration 300 μg/mL) of the same substance?
A: 0

Q: What about the “Saline Pellet (score)” value ([8]; Final concentration 300 μg/mL) of the same substance?
A: 0

Q: What about the “Saline Macro (precipitation/coagulation score)” value ([8]; Final concentration 600 μg/mL) of the same substance?
A: 0

Q: And the “Saline Micro (precipitation/coagulation score)” value ([8]; Final concentration 600 μg/mL)?
A: 0

Q: And the “Saline Pellet (score)” value ([8]; Final concentration 600 μg/mL)?
A: 0

Q: What about the “Saline Macro (precipitation/coagulation score)” value ([8]; Final concentration 1000 μg/mL) of the same substance?
A: 0

Q: And the “Saline Micro (precipitation/coagulation score)” value ([8]; Final concentration 1000 μg/mL)?
A: 0

Q: What about the “Saline Pellet (score)” value ([8]; Final concentration 1000 μg/mL) of the same substance?
A: 0
